Where no end group is shown, it is not given here.
Target: T1, human NPY-like GPCR (Homo sapiens, UniProt Q96P65)
T1 construct: expressed in transfected cells; host or cells: HEK293 (human embryonic kidney 293) cells, membrane preparation
T1 sequence (Q96P65 1-431): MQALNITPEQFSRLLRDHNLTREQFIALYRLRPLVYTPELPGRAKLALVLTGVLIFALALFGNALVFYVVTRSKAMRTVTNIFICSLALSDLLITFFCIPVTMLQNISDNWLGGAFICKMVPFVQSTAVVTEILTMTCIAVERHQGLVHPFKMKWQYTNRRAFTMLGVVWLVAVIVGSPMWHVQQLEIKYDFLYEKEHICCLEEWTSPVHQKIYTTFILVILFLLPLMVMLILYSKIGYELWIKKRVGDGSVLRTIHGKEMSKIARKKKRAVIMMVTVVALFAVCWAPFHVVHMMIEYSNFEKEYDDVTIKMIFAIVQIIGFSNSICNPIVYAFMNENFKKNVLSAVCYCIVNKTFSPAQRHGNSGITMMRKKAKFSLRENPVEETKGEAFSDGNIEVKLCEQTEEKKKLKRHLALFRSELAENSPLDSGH
Experiment: Binding affinity of known peptides for the human NPY-like GPCR
Conditions: human neuropeptide Y-like G protein-coupled receptor (SEQ ID NO:2); qualitative statement
Procedure: Human embryonic kidney 293 cells transfected with a polynucleotide that expresses human NPY-like GPCR are scraped from a culture flask into 5 ml of Tris HCl, 5 mM EDTA, pH 7.5, and lysed by sonication. Cell lysates are centrifuged at 1000 rpm for 5 minutes at 4° C. The supernatant is centrifuged at 30,000×g for 20 minutes at 4° C. The pellet is suspended in binding buffer containing 50 mM Tris HCl, 5 mM MgSO4, 1 mM EDTA, 100 mM NaCl, pH 7.5, supplemented with 0.1% BSA, 2 μg/ml aprotinin, […], and 10 μg/ml phosphoramidon. Optimal membrane suspension dilutions, defined as the protein concentration required to bind less than 10% of the added radioligand, are added to 96-well polypropylene microtiter plates containing ^125I-labeled ligand or test compound, non-labeled peptides, and binding buffer to a final volume of 250 μl.
In equilibrium saturation binding assays, membrane preparations are incubated in the presence of increasing concentrations (0.1 nM to 4 nM) of ^125I-labeled ligand or test compound (specific activity 2200 Ci/mmol). The binding affinities of different test compounds are determined in equilibrium competition binding assays, using 0.1 nM ^125I-peptide in the presence of twelve different concentrations of each test compound.
Binding reaction mixtures are incubated for one hour at 30° C. […] Radioactivity is measured by scintillation counting, and data are analyzed by a computerized non-linear regression program.
Non-specific binding is defined as the amount of radioactivity remaining after incubation of membrane protein in the presence of 100 nM of unlabeled peptide. Protein concentration is measured by the Bradford method using Bio-Rad Reagent, with bovine serum albumin as a standard. A test compound which […] the radioactivity of membrane protein by at least 15% relative to radioactivity of membrane protein that was not incubated with a test compound is identified as a compound which binds to a human NPY-like GPCR polypeptide.

Binding affinity for the receptor, do not appear to have binding affinity:
Neuropeptide Y
orexin-A (QPLPDCCRQKTCSCRLYELLHGAGNHAAGILTL; ends and bridges not checked; cysteine pairing not given here; UniProt O43612 34-66, looked up)
peptide YY: peptide that stimulates the Y1 receptor
